Measurements reported in the supplement of paper PMC7125110.
± gives the standard error. This sample holds only a part of the variants without activity.

B1: glmS ribozyme (parent)
chain: AUAAAAGCGCCAGAACUACAGAAAUGUAGUUGACGAGGAGGAGGUUUAUCGAAUUUUCGGCGGAUGCCUCCAAA

Assays:
Settings in all cases: with glucosamine-6-phosphate
glucosamine-6-phosphate [1] = variants of: B1; experiment: self-cleavage kobs at 640 uM GlcN6P; higher = faster cleavage; RNA array
Outline: (§1)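 Ribozyme variants carrying barcodes were transcribed in situ on sequenced MiSeq chips by E. coli RNA polymerase and tracked at 37 °C with a hybridised Cy3 probe. They were exposed to 40 μM to 10 mM glucosamine-6-phosphate in HEPES/KCl/Mg(OAc)2 buffer. kobs came from exponential decay fits of normalised per-tile medians, and kcat and KM from weighted Michaelis–Menten fits.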

glucosamine-6-phosphate [2] = variants of: B1; experiment: self-cleavage kobs at 2500 uM GlcN6P; higher = faster cleavage; RNA array
Outline: as §1

glucosamine-6-phosphate [3] = variants of: B1; experiment: self-cleavage kobs at 10000 uM GlcN6P; higher = faster cleavage; RNA array
Outline: as §1

AUAAAAGCGCCAGAACUACAGAAAUGUAGUUGACGAGGAGGAGGUUUACCGAAUUUUCGGAGGAUGCCUCCAAA [U49C C61A]
self-cleavage kobs at 640 uM GlcN6P (glucosamine-6-phosphate [1]): < 1e-05 s⁻¹

AUAAAUGCGCCAGAGCUACAGAAAUGUAGUUGACGAGGAGGAGGUUUAUCGAAUUUUCGGCUGAUGCCGCCAAA [A6U A15G G62U U69G]
self-cleavage kobs at 640 uM GlcN6P (glucosamine-6-phosphate [1]): 0.000197 ± 5.9e-05 s⁻¹

AUAAAAGCGCCAGAACUACAGAAAUGUAGUUAACGAGGAGGAGGUUUAUCGAAUUUUGGGCGGAUGCUUCCAAA [G32A C58G C68U]
self-cleavage kobs at 640 uM GlcN6P (glucosamine-6-phosphate [1]): 5.31e-05 ± 2.4e-05 s⁻¹
self-cleavage kobs at 2500 uM GlcN6P (glucosamine-6-phosphate [2]): 8.37e-05 ± 2.3e-05 s⁻¹

AUAAAAGCGUCAGAACUACAGAAAUGUAGUUGACGAGGAGGAGGUUUAUCGAAUUUUCGACGGAUGACUCCAAA [C10U G60A C67A]
self-cleavage kobs at 640 uM GlcN6P (glucosamine-6-phosphate [1]): < 1e-05 s⁻¹

AUAAACGCGCCAGAACUACAGAAAUGUAGUUGGCGAGGAGGAGGUCUAUCGAAUUUUCGGGGGAUGCCUCCAAA [A6C A33G U46C C61G]
self-cleavage kobs at 640 uM GlcN6P (glucosamine-6-phosphate [1]): < 1e-05 s⁻¹
self-cleavage kobs at 2500 uM GlcN6P (glucosamine-6-phosphate [2]): < 1e-05 s⁻¹

AUAAAAGCCCCAGAACUACAGAAAUGUACUUGACGAGGAGGAGGUUUAUCGUAUUUUCGGCGGAUGCCUUCAAA [G9C G29C A52U C70U]
self-cleavage kobs at 640 uM GlcN6P (glucosamine-6-phosphate [1]): < 1e-05 s⁻¹
self-cleavage kobs at 2500 uM GlcN6P (glucosamine-6-phosphate [2]): < 1e-05 s⁻¹
self-cleavage kobs at 10000 uM GlcN6P (glucosamine-6-phosphate [3]): < 1e-05 s⁻¹

AUAAAAGCGCCAGAACUACAUAAAUGUAGUUGACGAGGAGGAGGUUUAUCGAAUUUUCGGCGGAUGCCUGCAAA [G21U C70G]
self-cleavage kobs at 640 uM GlcN6P (glucosamine-6-phosphate [1]): 0.000253 ± 5.1e-05 s⁻¹
self-cleavage kobs at 2500 uM GlcN6P (glucosamine-6-phosphate [2]): 0.000154 ± 3.9e-05 s⁻¹
self-cleavage kobs at 10000 uM GlcN6P (glucosamine-6-phosphate [3]): 9.23e-05 ± 2.3e-05 s⁻¹

AUAAAAGCGCCAUAUCUACAGAAAUGUAGUUUACGAGGAGGAGGUUUAUCGAAUUUUCGGCCGAUGCAUCCAAA [G13U A15U G32U G62C C68A]
self-cleavage kobs at 640 uM GlcN6P (glucosamine-6-phosphate [1]): 7.42e-05 ± 3.5e-05 s⁻¹

AUAAAAGCGCCAGAACUACAGAAAUGUAGUUGACGAGGAGGAGGUUUAUCGCAUUUUGGGCGGAUGCCUCCAAA [A52C C58G]
self-cleavage kobs at 640 uM GlcN6P (glucosamine-6-phosphate [1]): < 1e-05 s⁻¹
self-cleavage kobs at 10000 uM GlcN6P (glucosamine-6-phosphate [3]): < 1e-05 s⁻¹

AUAAAAGCGCCCGAACUACAGAAAUGUACUUGACGAGGAGGCGGUUUAUCGAAUUUUCGGCGGAUGCCUCCAAA [A12C G29C A42C]
self-cleavage kobs at 640 uM GlcN6P (glucosamine-6-phosphate [1]): < 1e-05 s⁻¹

AUAAAAGCGCCAGAAAUACAGAAAUGUAGUUGACGAGGAGGAGGUUUAUCGAAUUGUCGGCGGAGGCCUCCAAA [C16A U56G U65G]
self-cleavage kobs at 640 uM GlcN6P (glucosamine-6-phosphate [1]): 5.32e-05 ± 2.4e-05 s⁻¹
self-cleavage kobs at 2500 uM GlcN6P (glucosamine-6-phosphate [2]): 0.000165 ± 5.6e-05 s⁻¹

AUAAAAGAGCCAGAACUACAGAAAUGUAGUUGACUAGGAGGAGGUUUAUCGAAUUUUCGGCGGAUGCCUGCAAA [C8A G35U C70G]
self-cleavage kobs at 640 uM GlcN6P (glucosamine-6-phosphate [1]): 0.000526 ± 0.0002 s⁻¹
self-cleavage kobs at 10000 uM GlcN6P (glucosamine-6-phosphate [3]): 7.27e-05 ± 2.4e-05 s⁻¹

AUAAAAGCGCCAGAACUACAGAAAUGUAGUUGACGAGAAGGGGGUUUAUCGAAUUUUCGGCUGAUGCCUCCAAA [G38A A42G G62U]
self-cleavage kobs at 640 uM GlcN6P (glucosamine-6-phosphate [1]): < 1e-05 s⁻¹

AUAAAAGCGCCAGAACUACAGAAAUGUAGUUGACGAGGACGAUGUUUAUCGAAUCUUCGGCGGAUGCCUCCAAA [G40C G43U U55C]
self-cleavage kobs at 640 uM GlcN6P (glucosamine-6-phosphate [1]): < 1e-05 s⁻¹
self-cleavage kobs at 2500 uM GlcN6P (glucosamine-6-phosphate [2]): < 1e-05 s⁻¹

AUAAAGGCGCCAGAACUACAGAAAUGUAGUUGACGAGGAGGAAGUUUAUCGAAUUUUCGGCGGAUGCAUCCAAA [A6G G43A C68A]
self-cleavage kobs at 640 uM GlcN6P (glucosamine-6-phosphate [1]): < 1e-05 s⁻¹

AUAAAAGCGCCAGUACUACAGAAAUGUAUUUGACGAGGAGGAGGUUUAUCGAAUUGUCGGCGGAUGCCUCCAAA [A14U G29U U56G]
self-cleavage kobs at 640 uM GlcN6P (glucosamine-6-phosphate [1]): 0.000178 ± 4.1e-05 s⁻¹
self-cleavage kobs at 2500 uM GlcN6P (glucosamine-6-phosphate [2]): 0.000206 ± 7.4e-05 s⁻¹

AUAAAAGCGCCGGAACUACAGAAAUGUAGUUGACGAGGCGUAGGUUAUUCGAAUUUUCGGUGGUUGCCUCCAAA [A12G A39C G41U U47A A48U C61U A64U]
self-cleavage kobs at 640 uM GlcN6P (glucosamine-6-phosphate [1]): < 1e-05 s⁻¹
self-cleavage kobs at 2500 uM GlcN6P (glucosamine-6-phosphate [2]): < 1e-05 s⁻¹

AUAAAAGCGCCAGAACUACAGAAAUGUAUUUGACGAGGAGGAGGUUAAUCGAAUUUUCGGCGGUUGCCUCCAAA [G29U U47A A64U]
self-cleavage kobs at 640 uM GlcN6P (glucosamine-6-phosphate [1]): < 1e-05 s⁻¹

AUAAAAGCUCCAGAACUACAGAAAUGUAGCUGACGAGGAGGAGGUUUAUCGAAUUUUCGGCGGAGGCCUUCAAA [G9U U30C U65G C70U]
self-cleavage kobs at 640 uM GlcN6P (glucosamine-6-phosphate [1]): < 1e-05 s⁻¹

AUAAAUGCGCCAGAACUACAGAAAUGUAGUUGACGAGUCGGAGGUUUAUCGAAUAUUCGGCGGAUGCCUCCAAA [A6U G38U A39C U55A]
self-cleavage kobs at 640 uM GlcN6P (glucosamine-6-phosphate [1]): < 1e-05 s⁻¹
self-cleavage kobs at 2500 uM GlcN6P (glucosamine-6-phosphate [2]): < 1e-05 s⁻¹

AUAAAAGCGCCAGAACUACAGAAAUGUAUUUGACGAAGAGGAGGUUUAUGGAAUUUUCGGCGGAUGCGUCCAAA [G29U G37A C50G C68G]
self-cleavage kobs at 640 uM GlcN6P (glucosamine-6-phosphate [1]): 0.000384 ± 0.00016 s⁻¹
self-cleavage kobs at 2500 uM GlcN6P (glucosamine-6-phosphate [2]): 5.37e-05 ± 1.7e-05 s⁻¹

AUAAAAGCGCCAGGACUACAGAAAUGUAGUUGACGAGGAGGACGUUUAUCUAAUUUUCGGCGGGUGCCUCCAAA [A14G G43C G51U A64G]
self-cleavage kobs at 640 uM GlcN6P (glucosamine-6-phosphate [1]): < 1e-05 s⁻¹
